Columns and labels:
[1] = target: T1, FFMFFM{LYS(N3)} peptide-linker conjugate, oligo linker (Table 6 entry 6)
T1 chain: FFMFFMX

[2] = target: KF peptide-linker conjugate, oligo linker (Table 6 entry 1)
[3] = target: T2, KKMKKM{LYS(N3)} peptide-linker conjugate, PEG4 linker (Table 6 entry 4)
T2 chain: KKMKKMX

[4] = target: T3, KKMKKM{LYS(N3)} peptide-linker conjugate, oligo linker (Table 6 entry 2)
T3 chain: KKMKKMX

[5] = target: T4, KKMKKM{LYS(N3)} peptide-linker conjugate, oligo-PEG linker (Table 6 entry 3)
T4 chain: KKMKKMX

[6] = target: […]{LYS(N3)} peptide-linker conjugate, oligo linker (Table 6 entry 5)
[7] = target: […]{LYS(N3)} peptide-linker conjugate, oligo linker (Table 6 entry 7)
FAAAWPDDDF1 = target: T5, FAAAWPDDDF1
T5 chain: FAAAWPDDDF

FAAAYPDDDF1 = target: T6, FAAAYPDDDF1
T6 chain: FAAAYPDDDF

FYPLPWPDDDY{LYSN3}NH2 = target: T7, FYPLPWPDDDY{LYSN3}NH2
T7 chain: FYPLPWPDDDYX

WAAAFPDDDF1 = target: T8, WAAAFPDDDF1
T8 chain: WAAAFPDDDF

B1: rat aminopeptidase N (protein)
chain: KPWNQYRLPKTLIPDSYQVTLRPYLTPNEQGLYIFKGSSTVRFTCNETTNVIIIHSKKLNYTNKGNHRVALRALGDTPAPNIDTTELVERTEYLVVHLQGSLVKGHQYEMDSEFQGELADDLAGFYRSEYMEGGNKKVVATTQMQAADARKSFPCFDEPAMKASFNITLIHPNNLTALSNMLPKDSRTLQEDPSWNVTEFHPTPKMSTYLLAYIVSEFKYVEAVSPNRVQIRIWARPSAIDEGHGDYALQVTGPILNFFAQHYNTAYPLEKSDQIALPDFNAGAMENWGLVTYRESALVFDPQSSSISNKERVVTVIAHELAHQWFGNLVTVDWWNDLWLNEGFASYVEFLGADYAEPTWNLKDLIVLNDVYRVMAVDALASSHPLSSPANEVNTPAQISELFDSITYSKGASVLRMLSSFLTEDLFKKGLSSYLHTFQYSNTIYLDLWEHLQQAVDSQTAIKLPASVSTIMDRWILQMGFPVITVNTSTGEIYQEHFLLDPTSKPTRPSDFNYLWIVPIPYLKNGKEDHYWLETEKNQSAEFQTSSNEWLLLNINVTGYYQVNYDENNWRKIQNQLQTDLSVIPVINRAQIIHDSFNLASAGKLSITLPLSNTLFLASETEYMPWEAALSSLNYFKLMFDRSEVYGPMKRYLKKQVTPLFAYFKIKTNNWLDRPPTLMEQYNEINAISTACSSGLEECRDLVVGLYSQWMNNSDNNPIHPNLRSTVYCNAIAFGGEEEWNFAWEQFRKATLVNEADKLRSALACSNEVWILNRYLSYTLNPDYIRKQDATSTIVSIANNVVGQTLVWDFVRSNWKKLFEDYGGGSFSFANLIQGVTRRFSSEFELQQLEQFKEDNSATGFGSGTRALEQALEKTKANIKWVKENKDVVLKWFTENS
- Cleaved by Rat APN [1]: Yes
- Cleaved by Rat APN [2]: No
- Cleaved by Rat APN [3]: Yes
- Cleaved by Rat APN [4]: No
- Cleaved by Rat APN [5]: No
- Cleaved by Rat APN [6]: Yes
- Cleaved by Rat APN [7]: Yes

B2: Vibrio proteolyticus aminopeptidase (protein)
chain: MPPITQQATVTAWLPQVDASQITGTISSLESFTNRFYTTTSGAQASDWIASEWQALSASLPNASVKQVSHSGYNQKSVVMTITGSEAPDEWIVIGGHLDSTIGSHTNEQSVAPGADDDASGIAAVTEVIRVLSENNFQPKRSIAFMAYAAEEVGLRGSQDLANQYKSEGKNVVSALQLDMTNYKGSAQDVVFITDYTDSNFTQYLTQLMDEYLPSLTYGFDTCGYACSDHASWHNAGYPAAMPFESKFNDYNPRIHTTQDTLANSDPTGSHAKKFTQLGLAYAIEMGSATGDTPTPGNQ
- HPLC Assay Conv; 600 uM Peptide, 8 uM enzyme, pH 8, RT/0.5 hr (FAAAWPDDDF1): 100%
- HPLC Assay Conv; 600 uM Peptide, 0.08 uM enzyme, RT/0.5 hr (FAAAYPDDDF1): 5%
- HPLC Assay Conv; 600 uM Peptide, 0.8 uM enzyme, RT/0.5 hr (FAAAYPDDDF1): 50%
- HPLC Assay Conv; 600 uM Peptide, 8 uM enzyme, RT/0.5 hr (FAAAYPDDDF1): 100%
- HPLC Assay Conv; 200 uM Peptide, 8 uM enzyme, MOPS pH 5.0, RT/0.5 hr (FYPLPWPDDDY{LYSN3}NH2): 100%
- HPLC Assay Conv; 200 uM Peptide, 8 uM enzyme, MOPS pH 5.0, RT/1 hr (FYPLPWPDDDY{LYSN3}NH2): 100%
- HPLC Assay Conv; 600 uM Peptide, 0.8 uM enzyme, pH 5.5, RT/0.5 hr (FYPLPWPDDDY{LYSN3}NH2): 100%
- HPLC Assay Conv; 600 uM Peptide, 0.8 uM enzyme, pH 6.5, RT/0.5 hr (FYPLPWPDDDY{LYSN3}NH2): 100%
- HPLC Assay Conv; 600 uM Peptide, 0.8 uM enzyme, pH 7.5, RT/0.5 hr (FYPLPWPDDDY{LYSN3}NH2): 100%
- HPLC Assay Conv; 600 uM Peptide, 0.8 uM enzyme, pH 8.5, RT/0.5 hr (FYPLPWPDDDY{LYSN3}NH2): 100%
- HPLC Assay Conv; 1200 uM Peptide, 800 pM enzyme, pH 7.5, RT/0.5 hr (FYPLPWPDDDY{LYSN3}NH2): 2.70%
- HPLC Assay Conv; 1200 uM Peptide, 800 pM enzyme, pH 8.5, RT/0.5 hr (FYPLPWPDDDY{LYSN3}NH2): 6.80%
- HPLC Assay Conv; 1200 uM Peptide, 0.008 uM enzyme, pH 5.5, RT/0.5 hr (FYPLPWPDDDY{LYSN3}NH2): 1.40%
- HPLC Assay Conv; 1200 uM Peptide, 0.008 uM enzyme, pH 6.5, RT/0.5 hr (FYPLPWPDDDY{LYSN3}NH2): 56%
- HPLC Assay Conv; 1200 uM Peptide, 0.008 uM enzyme, pH 7.5, RT/0.5 hr (FYPLPWPDDDY{LYSN3}NH2): 100%
- HPLC Assay Conv; 1200 uM Peptide, 0.008 uM enzyme, pH 8.5, RT/0.5 hr (FYPLPWPDDDY{LYSN3}NH2): 100%
- HPLC Assay Conv; 1200 uM Peptide, 0.08 uM enzyme, pH 5.5, RT/0.5 hr (FYPLPWPDDDY{LYSN3}NH2): 50%
- HPLC Assay Conv; 1200 uM Peptide, 0.08 uM enzyme, pH 6.5, RT/0.5 hr (FYPLPWPDDDY{LYSN3}NH2): 100%
- HPLC Assay Conv; 1200 uM Peptide, 0.08 uM enzyme, pH 7.5, RT/0.5 hr (FYPLPWPDDDY{LYSN3}NH2): 100%
- HPLC Assay Conv; 1200 uM Peptide, 0.08 uM enzyme, pH 8.5, RT/0.5 hr (FYPLPWPDDDY{LYSN3}NH2): 100%
- HPLC Assay Conv; 300 uM Peptide, 8 uM enzyme, 50/50 MOPS Mg buffer/RB1, RT/0.5 hr (WAAAFPDDDF1): 30%
- HPLC Assay Conv; 300 uM Peptide, 8 uM enzyme, RB2 + Mg, RT/0.5 hr (WAAAFPDDDF1): 5%
- HPLC Assay Conv; 300 uM Peptide, 8 uM enzyme, RB4, RT/0.5 hr (WAAAFPDDDF1): 100%
- HPLC Assay Conv; 300 uM Peptide, 8 uM enzyme, pH 8, 60 mM KOAc, RT/0.5 hr (WAAAFPDDDF1): 70%
- HPLC Assay Conv; 300 uM Peptide, 8 uM enzyme, pH 8, 60 mM KOAc, RT/2 hr (WAAAFPDDDF1): 100%
- HPLC Assay Conv; 300 uM Peptide, 8 uM enzyme, pH 8, 0.2% Tween20, RT/0.5 hr (WAAAFPDDDF1): 100%
- HPLC Assay Conv; 300 uM Peptide, 8 uM enzyme, pH 8, RT/0.5 hr (WAAAFPDDDF1): 100%
- HPLC Assay Conv; 600 uM Peptide, 8 uM enzyme, pH 8, RT/0.5 hr (WAAAFPDDDF1): 100%

From patent US20250283886
